B1: THAP1; numbered along this chain (parent)
chain: MVQSCSAYGCKNRYDKDKPVSFHKFPLTRPSLCKEWEAAVRRKNFKPTKYSSICSEHFTPDCFKRECNNKLLKENAVPTIFLCTEPHDKKEDLLEPQEQLPPPPLPPPVSQVDAAIGLLMPPLQTPVNLSVFCDHNYTVEDTMHQRKRIHQLEQQVEKLRKKLKTAQQRCRRQERQLEKLKEVVHFQKEKDDVSERGYVILPNDYFEIVEVPA

This data set covers variants of B1. Briefly: THAP1 transcriptional activity (GFP+/GFP- enrichment relative to wild-type constructs) (ratio to WT); higher = more THAP1 activity (PSMB5 reporter activation). Particulars: with PSMB5 promoter-GFP reporter. An outline of the steps:
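A lentiviral site-saturation library covering residues 2–213 of human THAP1, with each position changed to all 20 amino acids, was transduced in duplicate at MOI ~0.3 into THAP1-knockout HEK-293T cells with mClover3 knocked in at endogenous PSMB5. Five days later, BFP+ cells were sorted into GFP-dim and GFP-bright bins and variants were counted by Illumina sequencing of genomic DNA amplicons. Activity is the bright/dim read fold change averaged over replicates and divided by the mean of wild-type synonymous constructs.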
Regarding K64N, the THAP1 transcriptional activity was 0.237. For E195K, the THAP1 transcriptional activity came to 1.37. For L201H, the THAP1 transcriptional activity stood at 0.804. To E207V belongs 1.29; to E207G, 0.488.

Consider M143C, for which the THAP1 transcriptional activity is 1.09. Regarding M143H, the THAP1 transcriptional activity was found to be 0.575. In the case of M143I, the THAP1 transcriptional activity amounted to 0.679. With M143Q the figure was 0.669. To M143K belongs 0.848; to V127I, 0.501. On to V127W, for which the THAP1 transcriptional activity came to 0.336. As for S6N, the THAP1 transcriptional activity turned out to be 0.174. Consider Q111M, for which the THAP1 transcriptional activity amounted to 0.329. With V112M the figure was 1.24; with V112E, 1.25; with V112G, 1.11. With V112L, the THAP1 transcriptional activity turned out to be 0.629. D92W: the THAP1 transcriptional activity turned out to be 0.658. With D92E the figure was 1.44. To D92V belongs 0.743; to F81A, 0.367; to F81H, 0.525. R29D: the THAP1 transcriptional activity was determined as 0.187. With R29A the figure was 0.122.

On to R29I, for which the THAP1 transcriptional activity turned out to be 0.134. As to P107D, the THAP1 transcriptional activity was 1.21.

As to N69R, the THAP1 transcriptional activity came to 0.216. With N69Q, the THAP1 transcriptional activity is 0.143. To S130D belongs 0.555; to V184G, 1.29. To V184A belongs 1.55; to V184P, 0.617.

Take V199W: the THAP1 transcriptional activity stood at 0.95. With V199G, the THAP1 transcriptional activity amounted to 0.935. To Q173V belongs 1.27; to R42Y, 0.103; to N44R, 0.178.

Turning to N44T, the THAP1 transcriptional activity amounted to 0.439. To L100K belongs 1.18. To I200H belongs 0.546; to E140C, 0.908. Consider E140T, for which the THAP1 transcriptional activity was 1.57.

As for E140W, the THAP1 transcriptional activity was determined as 1.1. Turning to K24Q, the THAP1 transcriptional activity came to 0.0996.

In the case of K24Y, the THAP1 transcriptional activity turned out to be 0.11. With K24H the figure was 0.345; with R169Q, 0.379; with E56C, 0.263. To L71C belongs 1.42. Regarding L71K, the THAP1 transcriptional activity amounted to 0.533. In the case of P96F, the THAP1 transcriptional activity came to 0.885. Take A38I: the THAP1 transcriptional activity was determined as 0.735. To Y50T belongs 0.13; to L118P, 1.1. As for E98F, the THAP1 transcriptional activity amounted to 0.462. With E98Q the figure was 1.69; with E98R, 0.908; with V77A, 0.343. To V77E belongs 0.259; to R146F, 0.489; to H57K, 0.126. Consider H57M, for which the THAP1 transcriptional activity is 0.138. With H57Q the figure was 0.0983.

On to K158Y, for which the THAP1 transcriptional activity came to 0.666. To K158F belongs 0.365; to K158G, 0.542; to P212Y, 1.42. To P212I belongs 1.75; to P212L, 1.42; to E210T, 1.08. With G117W the figure was 0.261; with G117M, 0.138.

As to F58P, the THAP1 transcriptional activity is 0.0346. On to F58D, for which the THAP1 transcriptional activity was determined as 0.0836. To N203Q belongs 0.904; to T28E, 0.172; to T28D, 0.202.

Turning to T28Y, the THAP1 transcriptional activity worked out at 0.137. To T28R belongs 1.03; to S4C, 0.233. As to D15Q, the THAP1 transcriptional activity came to 1.05. To K188R belongs 1.34.

(Values after the supplement of paper PMC11811203.)
